Patent US6596500B1, “Binding of retinoids to M6P/IGF-II receptor” (The General Hospital Corporation, priority 1998, dated 2003)

Target: T1, partially purified rat M6P/IGF-II receptor (Rattus norvegicus, UniProt G3V824)
T1 construct: both intact (300 kDa) and truncated (260 kDa) forms of M6P/IGF-II receptor exist in the serum; from tissue; host or cells: neonatal rat serum, FPLC Sepharose-12 fraction
Test: Equilibrium [3H]RA ligand-binding assay (dextran-charcoal), Scatchard analysis
Conditions: β-glucuronidase 2,500 units/ml
Description: Partially purified M6P/IGF-II receptors from neonatal rat serum was prepared using a Fast Protein Liquid Chromatography (FPLC) system equipped with a Sepharose-12 column (Pharmacia). The partially purified M6P/IGF2R protein was diluted in binding buffer (20 mM Tris-HCl, pH 8.0/150 mM NaCl/1mM DTT/protease inhibitors) at a concentration of 50 Ag/ml. […] Incubation was carried out at 22° C. for 2 h in the dark. After the incubation, 0.2 ml chilled charcoal-dextran suspension (charcoal/dextran/glycerol=0.5%/0.05%/20%) was added to remove the unbound ligand.

T1 sequence (G3V824 36-2481): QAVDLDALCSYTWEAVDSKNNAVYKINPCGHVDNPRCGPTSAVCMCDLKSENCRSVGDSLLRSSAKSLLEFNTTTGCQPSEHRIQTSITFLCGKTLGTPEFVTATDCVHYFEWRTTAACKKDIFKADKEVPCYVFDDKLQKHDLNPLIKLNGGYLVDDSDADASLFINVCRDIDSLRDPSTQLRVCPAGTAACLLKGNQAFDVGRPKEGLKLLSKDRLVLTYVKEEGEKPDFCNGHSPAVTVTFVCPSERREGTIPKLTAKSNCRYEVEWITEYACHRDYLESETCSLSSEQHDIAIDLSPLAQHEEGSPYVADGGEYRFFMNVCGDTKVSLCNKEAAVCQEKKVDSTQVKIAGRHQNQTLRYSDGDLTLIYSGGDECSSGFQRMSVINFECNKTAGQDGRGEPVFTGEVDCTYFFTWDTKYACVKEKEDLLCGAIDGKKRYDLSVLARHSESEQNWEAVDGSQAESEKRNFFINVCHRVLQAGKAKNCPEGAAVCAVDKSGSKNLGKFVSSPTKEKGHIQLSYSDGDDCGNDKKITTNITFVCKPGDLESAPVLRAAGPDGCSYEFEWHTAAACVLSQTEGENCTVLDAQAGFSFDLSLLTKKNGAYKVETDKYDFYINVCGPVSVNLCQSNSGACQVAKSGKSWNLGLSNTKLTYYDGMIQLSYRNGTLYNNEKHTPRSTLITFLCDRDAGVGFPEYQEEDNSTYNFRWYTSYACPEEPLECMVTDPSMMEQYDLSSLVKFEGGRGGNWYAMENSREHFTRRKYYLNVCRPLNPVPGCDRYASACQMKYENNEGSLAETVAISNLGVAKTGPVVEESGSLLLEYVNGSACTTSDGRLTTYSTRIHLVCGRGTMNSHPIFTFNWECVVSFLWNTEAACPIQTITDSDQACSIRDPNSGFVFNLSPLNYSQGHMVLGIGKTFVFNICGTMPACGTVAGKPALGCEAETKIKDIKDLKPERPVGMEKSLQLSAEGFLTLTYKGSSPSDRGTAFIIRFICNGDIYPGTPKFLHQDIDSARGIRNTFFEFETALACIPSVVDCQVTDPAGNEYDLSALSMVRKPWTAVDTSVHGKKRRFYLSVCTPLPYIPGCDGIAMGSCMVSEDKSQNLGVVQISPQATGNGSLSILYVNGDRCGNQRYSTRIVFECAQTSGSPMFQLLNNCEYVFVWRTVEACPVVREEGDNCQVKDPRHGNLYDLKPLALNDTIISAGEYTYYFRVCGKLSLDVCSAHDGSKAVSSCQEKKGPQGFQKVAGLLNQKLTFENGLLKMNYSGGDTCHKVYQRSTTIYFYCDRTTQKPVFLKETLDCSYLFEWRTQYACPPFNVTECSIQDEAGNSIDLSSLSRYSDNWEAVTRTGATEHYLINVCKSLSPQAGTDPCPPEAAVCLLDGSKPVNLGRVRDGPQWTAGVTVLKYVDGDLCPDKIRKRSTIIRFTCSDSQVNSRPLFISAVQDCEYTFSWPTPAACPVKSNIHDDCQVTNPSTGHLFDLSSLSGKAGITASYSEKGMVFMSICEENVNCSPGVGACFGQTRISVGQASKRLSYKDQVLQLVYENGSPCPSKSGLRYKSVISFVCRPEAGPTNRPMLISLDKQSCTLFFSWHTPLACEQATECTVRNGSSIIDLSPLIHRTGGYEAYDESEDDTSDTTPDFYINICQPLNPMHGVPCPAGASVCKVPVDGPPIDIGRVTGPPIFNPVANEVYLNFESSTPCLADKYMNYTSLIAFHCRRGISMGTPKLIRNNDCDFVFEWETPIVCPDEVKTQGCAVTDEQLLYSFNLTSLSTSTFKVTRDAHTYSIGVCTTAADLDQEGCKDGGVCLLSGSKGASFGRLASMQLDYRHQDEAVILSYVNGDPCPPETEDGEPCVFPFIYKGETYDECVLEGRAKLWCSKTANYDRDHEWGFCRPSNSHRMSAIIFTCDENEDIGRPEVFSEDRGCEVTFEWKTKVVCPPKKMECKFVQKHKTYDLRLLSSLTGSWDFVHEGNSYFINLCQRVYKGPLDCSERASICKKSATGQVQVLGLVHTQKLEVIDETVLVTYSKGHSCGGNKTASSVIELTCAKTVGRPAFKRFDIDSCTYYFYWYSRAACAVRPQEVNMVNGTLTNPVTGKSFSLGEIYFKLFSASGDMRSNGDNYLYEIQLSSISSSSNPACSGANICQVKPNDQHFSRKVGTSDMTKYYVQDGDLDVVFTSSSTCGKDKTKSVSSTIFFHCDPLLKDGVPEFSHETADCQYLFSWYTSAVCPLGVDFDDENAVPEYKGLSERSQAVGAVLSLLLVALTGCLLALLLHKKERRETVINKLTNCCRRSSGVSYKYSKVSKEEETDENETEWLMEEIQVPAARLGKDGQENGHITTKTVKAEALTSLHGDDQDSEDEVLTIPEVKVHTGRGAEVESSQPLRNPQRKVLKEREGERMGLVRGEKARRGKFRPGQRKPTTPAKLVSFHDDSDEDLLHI

Effect on [3H]RA binding to the receptor: increase [^3H]RA binding
B1: β-glucuronidase: M6P-containing lysosomal enzyme (protein, UniProt P08236 23-651, looked up)
Beta-glucuronidase: LQGGMLYPQESPSRECKELDGLWSFRADFSDNRRRGFEEQWYRRPLWESGPTVDMPVPSSFNDISQDWRLRHFVGWVWYEREVILPERWTQDLRTRVVLRIGSAHSYAIVWVNGVDTLEHEGGYLPFEADISNLVQVGPLPSRLRITIAINNTLTPTTLPPGTIQYLTDTSKYPKGYFVQNTYFDFFNYAGLQRSVLLYTTPTTYIDDITVTTSVEQDSGLVNYQISVKGSNLFKLEVRLLDAENKVVANGTGTQGQLKVPGVSLWWPYLMHERPAYLYSLEVQLTAQTSLGPVSDFYTLPVGIRTVAVTKSQFLINGKPFYFHGVNKHEDADIRGKGFDWPLLVKDFNLLRWLGANAFRTSHYPYAEEVMQMCDRYGIVVIDECPGVGLALPQFFNNVSLHHHMQVMEEVVRRDKNHPAVVMWSVANEPASHLESAGYYLKMVIAHTKSLDPSRPVTFVSNSNYAADKGAPYVDVICLNSYYSWYHDYGHLELIQLQLATQFENWYKKYQKPIIQSEYGAETIAGFHQDPPLMFTEEYQKSLLEQYHLGLDQKRRKYVVGELIWNFADFMTEQSPTRVLGNKKGIFTRQRQPKSAAFLLRERYWKIANETRYPHSVAKSQCLENSLFT
